Measurements from patent US12168773B2, “Engineered phosphoenolpyruvate carboxylase enzymes” (The Regents of the University of California, priority 2019, dated 2024).

Tests used:
[1] = biological target: T1, Zea mays PPC1 (ZmPPC1, C4 PEPC) (Zea mays, UniProt P04711, A655V); assay: malate dehydrogenase coupled PEPC enzymatic assay, maize C4 PPC1 and engineered variants; type: biochemical; details: Kcat/Km
T1 construct: 6xHis (N); made in house; host or cells: E. coli BL21 CodonPlus (pET22b)
From the text: (§1) For both Arabidopsis C3 PPC1 (AtPPC1) and maize C4 PPC1 (ZmPPC1), the entire coding sequence for each was cloned into pET22b, which contains an amino-terminal 6×-HIS tag for protein purification, and expression was driven by the T7 promoter and lac operon. Relevant mutations were introduced by the Stratagene QuikChange mutagenesis kit using PCR amplification. Both wild type and mutant cDNA constructs were sequenced entirely following cloning into pet22b. Proteins were produced by growing transformed E. coli (BL21 CodonPlus) in autoinduction medium at 18° C. for 16 hours. Proteins were isolated by sonication of bacterial cells followed by passage over a nickel sepharose affinity column, elution with imidazole and separation on a GE SUPERDEX HILOAD 200 PG 16/60 all using an AKTA FPLC.
(§2) Enzyme analysis was conducted in vitro using protein that was generated by expression in E. coli using the pET22b vector. For expression, pET22b constructs were transformed into E. coli BL21-DE3 codon plus RIL cells and grown at 37° C. in autoinduction media until reaching an OD=1 after which these were transferred to 18° C. for 18 hours. Samples were collected and lysed by sonication. Protein was purified by passage through a His-trap nickel affinity column on an Akta FPLC and then eluted with 400 mM imidazole. Partially purified protein was then separated on an FPLC equipped with a HiPrep S200 size exclusion column (16/60) after which collected sample was concentrated by centrifugation to a final concentration of 4 mg/ml in 50% glycerol. Samples were stored at −20° C.
(§3) For enzymatic assays, a malate dehydrogenase coupled reaction was conducted with a range of substrate concentrations (0-7.5 mM phosphoenolpyruvate pyruvate) and a range of concentrations of allosteric inhibitor (0-50 mM malate). Assays were monitored using a Victor2 microplate reader at 25° C. Reactions consisted of […] PPC enzyme variants, 50 mM HEPES pH7.5, 10 mM MgCl2, 10 mM KHCO3 (carbonate substrate), 0.2 mM NADH, and 10 units/ml of malate dehydrogenase. Reaction time was 15 minutes and samples were measured on an ˜40 second interval. For measurement, which monitors loss of NADH, excitation wavelength was 340 nM and emission wavelength was 460 nM.

[2] = tested on: Zea mays PPC1 (ZmPPC1, C4 PEPC); assay: as above; type: biochemical
From the text: as §1, §2, §3

T1 sequence (P04711 whole entry A655V): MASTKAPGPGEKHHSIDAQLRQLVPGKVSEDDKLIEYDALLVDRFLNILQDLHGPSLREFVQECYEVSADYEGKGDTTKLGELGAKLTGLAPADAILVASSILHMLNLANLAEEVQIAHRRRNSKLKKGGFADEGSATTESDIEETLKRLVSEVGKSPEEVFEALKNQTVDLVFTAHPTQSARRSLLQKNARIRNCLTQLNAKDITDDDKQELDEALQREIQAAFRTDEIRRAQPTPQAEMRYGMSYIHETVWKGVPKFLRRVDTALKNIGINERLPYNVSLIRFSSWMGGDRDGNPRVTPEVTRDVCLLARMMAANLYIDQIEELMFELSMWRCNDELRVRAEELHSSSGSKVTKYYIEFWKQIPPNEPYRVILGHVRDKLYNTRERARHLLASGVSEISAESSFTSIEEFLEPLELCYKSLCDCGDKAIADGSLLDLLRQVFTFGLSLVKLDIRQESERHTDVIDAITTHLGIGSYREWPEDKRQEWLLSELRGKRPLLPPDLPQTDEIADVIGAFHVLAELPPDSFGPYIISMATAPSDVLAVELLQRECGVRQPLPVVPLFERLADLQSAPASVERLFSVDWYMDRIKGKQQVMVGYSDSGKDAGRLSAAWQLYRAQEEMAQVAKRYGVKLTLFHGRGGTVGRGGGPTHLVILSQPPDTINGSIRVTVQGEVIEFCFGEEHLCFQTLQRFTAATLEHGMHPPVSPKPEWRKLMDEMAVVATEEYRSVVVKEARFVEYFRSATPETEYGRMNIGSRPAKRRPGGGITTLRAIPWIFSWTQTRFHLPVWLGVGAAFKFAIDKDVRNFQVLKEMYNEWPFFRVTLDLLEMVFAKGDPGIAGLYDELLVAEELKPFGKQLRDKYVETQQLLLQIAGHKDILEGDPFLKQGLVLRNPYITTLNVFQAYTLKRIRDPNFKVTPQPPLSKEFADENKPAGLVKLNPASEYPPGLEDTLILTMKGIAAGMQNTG

B1: ZmPPC1 A651V: engineered Zea mays PPC1 with A651V substitution (A655V in SEQ ID NO:15) (protein)
chain: MASTKAPGPGEKHHSIDAQLRQLVPGKVSEDDKLIEYDALLVDRFLNILQDLHGPSLREFVQECYEVSADYEGKGDTTKLGELGAKLTGLAPADAILVASSILHMLNLANLAEEVQIAHRRRNSKLKKGGFADEGSATTESDIEETLKRLVSEVGKSPEEVFEALKNQTVDLVFTAHPTQSARRSLLQKNARIRNCLTQLNAKDITDDDKQELDEALQREIQAAFRTDEIRRAQPTPQDEMRYGMSYIHETVWKGVPKFLRRVDTALKNIGINERLPYNVSLIRFSSWMGGDRDGNPRVTPEVTRDVCLLARMMAANLYIDQIEELMFELSMWRCNDELRVRAEELHSSSGSKVTKYYIEFWKQIPPNEPYRVILGHVRDKLYNTRERARHLLASGVSEISAESSFTSIEEFLEPLELCYKSLCDCGDKAIADGSLLDLLRQVFTFGLSLVKLDIRQESERHTDVIDAITTHLGIGSYREWPEDKRQEWLLSELRGKRPLLPPDLPQTDEIADVIGAFHVLAELPPDSFGPYIISMATAPSDVLAVELLQRECGVRQPLPVVPLFERLADLQSAPASVERLFSVDWYMDRIKGKQQVMVGYSDSGKDAGRLSAAWQLYRAQEEMAQVAKRYGVKLTLFHGRGGTVGRGGGPTHLVILSQPPDTINGSIRVTVQGEVIEFCFGEEHLCFQTLQRFTAATLEHGMHPPVSPKPEWRKLMDEMAVVATEEYRSVVVKEARFVEYFRSATPETEYGRMNIGSRPAKRRPGGGITTLRAIPWIFSWTQTRFHLPVWLGVGAAFKFAIDKDVRNFQVLKEMYNEWPFFRVTLDLLEMVFAKGDPGIAGLYDELLVAEELKPFGKQLRDKYVETQQLLLQIAGHKDILEGDPFLKQGLVLRNPYITTLNVFQAYTLKRIRDPNFKVTPQPPLSKEFADENKPAGLVKLNPASEYPPGLEDTLILTMKGIAAGMQNTG
increase in catalytic efficiency relative to wt ZmPPC1 [1]: > 7 fold | effects of the allosteric inhibitor malate relative to wt ZmPPC1 [2]: greatly reduce | Km ([2]; 0-7.5 mM phosphoenolpyruvate, 25° C, HEPES pH7.5, read-out: Km PEP): 477 ± 42 µM | Vmax ([2]; 25° C, HEPES pH7.5): 12.84 ± 0.89 units/mg | effect of malate on enzyme ([2]; at 50 mM malate): wholly unaffected | activity of C4 PEPC ([2]; substitution introduced into maize C4 PEPC (ZmPPC1)): increased activity
